Assay results as given in patent US9266964.
Substitutions are numbered along the chain they refer to.

B1: M10-F10 (Fab, V domains shown)
VH: EVQLLESGGGLVQPGGSLRLSCAASGFTFSFYNMNWVRQAPGKGLEWVSSISPSGGETNYADSVKGRFTISRDNSKNTLYLQMNSLRAEDTAVYYCARGGGAYRNNWWGGFDIWGLGTMVTVSS
VL: DIQMTQSPSSLSASVGDRVTITCRASQSISVYLNWYQHKPGKAPKLLIYGASNLQFGVPSRFSGSGYGTDFTLTISSLQPEDFATYHCQQTFSLFTFGGGTKVEIK
notes: Printed HC runs from VH into the start of CH1
B2: M142-H08 (Fab, V domains shown)
VH: EVQLLESGGGLVQPGGSLRLSCAASGFTFSAYSMIWVRQAPGKGLEWVSYIRPSGGRTTYADSVKGRFTISRDNSKNTLYLQMNSLRAEDTAVYYCARGGLLLWFRELKSNYFDYWGQGTLVTVSS
VL: DIQMTQSPSSLSAFVGDRVTITCRASQPIDNYLNWYHQKPGKAPKLLIYAASRLQSGVPSRLSGSGFGTDFTLTISSLQPEDFGNYYCQQSYTVPYTFGGGTKVEIR
notes: as for B1
B3: X67-E04 (antibody, V domains shown)
VH: B2 VH with F105D
VL: B2 VL
notes: Single point mutant (F to D at P2 of HC CDR3) of M142-H08; Only variable domains and the start of CH1 are printed; also called 559A-X67-E04
B4: X67-F10 (antibody, V domains shown)
VH: B2 VH with F105T
VL: B2 VL
notes: Single point mutant (F to T at P2 of HC CDR3) of M142-H08; Only variable domains and the start of CH1 are printed; also called 559A-X67-F10
B5: X67-H04 (antibody, V domains shown)
VH: B2 VH with F105E
VL: B2 VL
notes: Single point mutant (F to E at P2 of HC CDR3) of M142-H08; Only variable domains and the start of CH1 are printed; also called 559A-X67-H04
B6: X67-G04 (antibody, V domains shown)
VH: B2 VH with F105A
VL: B2 VL
notes: Single point mutant (F to A at P2 of HC CDR3) of M142-H08; Only variable domains and the start of CH1 are printed; also called 559A-X67-G04
B7: X67-F01 (antibody, V domains shown)
VH: B2 VH with F105Q
VL: B2 VL
notes: Single point mutant (F to Q at P2 of HC CDR3) of M142-H08; Only variable domains and the start of CH1 are printed; also called 559A-X67-F01
B8: M8-A09 (Fab, V domains shown)
VH: EVQLLESGGGLVQPGGSLRLSCAASGFTFSTYFMLWVRQAPGKGLEWVSSIYPSGGNTVYADSVKGRFTISRDNSKNTLYLQMNSLRAEDTAVYYCARAASPVRNYYYYGMDVWGQGTTVTVSS
VL: QCELTQPPSESVSPGQTANITCSGDKLGNKYAYWYQQKPGQSPVLVIYQDNNRPSGIPERFSGSNSGNTATLTISGTQAIDEANYYCQAWDSRTVVFGGGTKLTVL
notes: as for B1
B9: M137-E12 (Fab, V domains shown)
VH: EVQLLESGGGLVQPGGSLRLSCAASGFTFSDYRMQWVRQAPGKGLEWVSVIVPSGGNTMYADSVKGRFTISRDNSKNTLYLQMNSLRAEDTAVYYCARGGPGSSIAARRAPTGYYGMDVWGQGTTVTVSS
VL: QSVLIQPPSVSGIPGQRVTISCSGNNSNFGSNTVTWYQQLPGTAPKLLIYSDSRRPSGVPDRFSGSRSDTSASLAISGLQSEDEAEYHCAAWDDSLNGVFGGGTKLTVL
notes: as for B1
B10: M41-A11 (Fab, V domains shown)
VH: EVQLLESGGGLVQPGGSLRLSCAASGFTFSHYRMSWVRQAPGKGLEWVSSIYPSGGRTVYADSVKGRFTISRDNSKNTLYLQMNSLRAEDTAVYYCAKDKFEWRLLFRGIGNDAFDIWGQGTMVTVSS
VL: QSVLTQPPSVSVSPGQTASITCSGDKLGDKYTSWYQQRPGQSPVLVIYQDIKRPSGIPERFSGSNSGNTATLTISGTQAMDEADYYCQAWDSPNARVFGSGTKVTVL
notes: as for B1
B11: M29-D09 (Fab, V domains shown)
VH: EVQLLESGGGLVQPGGSLRLSCAASGFTFSWYTMVWVRQAPGKGLEWVSYIYPSGGATFYADSVKGRFTISRDNSKNTLYLQMNSLRAEDTAVYYCAMGSYDYIWGFYSDHWGQGTLVTVSS
VL: QSALTQPPTVSVSPGQTARITCSGNKLGDKYVAWYQQKPGQSPMLVIYQDTKRPSRVSERFSGSNSANTATLSISGTQALDEADYYCQAWDSSIVIFGGGTRLTVL
notes: Printed HC runs from VH into the start of CH1; also called 559A-M29-D09; 559A-M0029-D09
B12: M73-D06 (Fab, V domains shown)
VH: EVQLLESGGGLVQPGGSLRLSCAASGFTFSRYEMYWVRQAPGKGLEWVSSISSSGGPTAYADSVKGRFTISRDNSKNTLYLQMNSLRAEDTAMYYCAKGTPKWELLLRSIYIENAFDIWGQGTMVTVSS
VL: QSELTQPPSASETPGQRVTISCSGSSSNIGSNTVSWFQQLPGSAPRLLIYNDHRRPSGVPDRFSGSKSGTSASLVISGLQSQDEADYYCSAWDDSLNGVVFGGGTKLTVL
notes: as for B1
B13: M7-B04 (Fab, V domains shown)
VH: EVQLLESGGGLVQPGGSLRLSCAASGFTFSWYSMVWVRQAPGKGLEWVSSISPSGGLTNYADSVKGRFTISRDNSKNTLYLQMNSLRAEDTAVYYCARHTAARPFYYYYMDVWGKGTTVTVSS
VL: QSALTQPASVSGSPGQSITISCTGTNSDVGNYNLVSWYQQHPGEAPKLLIYEVNKRPSGVSNRFSGSKSGNTASLTISGLQAEDEADYLCCSYAGNRNFYVFGAGTKVTVL
notes: as for B1
B14: M35-G04 (Fab, V domains shown)
VH: EVQLLESGGGLVQPGGSLRLSCAASGFTFSYYHMSWVRQAPGKGLEWVSVISPSGGSTKYADSVKGRFTISRDNSKNTLYLQMNSLRAEDTAVYYCARGGSSDYAWGSYRRPYYFDYWGQGTLVTVSS
VL: DIQMTQSPATLSLSPGERATLSCRASQSVSSYLAWYQQKPGQAPRLLIYDASNRATGIPARFSGSGSGTDFTLTISSLEPEDFAVYYCQQRSNWPRGFTFGPGTKVDIK
notes: Printed HC runs from VH into the start of CH1; also called 559A-M35-G04; 559A-M0035-G04
B15: M6-D09 (Fab, V domains shown)
VH: EVQLLESGGGLVQPGGSLRLSCAASGFTFSFYYMVWVRQAPGKGLEWVSVIYPSGGITVYADSVKGRFTISRDNSKNTLYLQMNSLRAEDTAVYYCARDKWAVMPPYYYYAMDVWGQGTTVTVSS
VL: DIQMTQSPSSLSASVGDRVTITCRASQSIRNYLNWYQQKPGKAPNLLIYAASTLQSGVPARFSGSGSGTDFTLTISSLQPEDFATYYCQQLSGYPHTFGQGTKLEIK
notes: Printed HC runs from VH into the start of CH1; also called M06-D09; 559A-M06-D09
B16: M110-C12 (Fab, V domains shown)
VH: EVQLLESGGGLVQPGGSLRLSCAASGFTFSYYEMDWVRQAPGKGLEWVSGISSSGGHTAYADSVKGRFTISRDNSKNTLYLQMNSLRAEDTATYYCARERRSSSRARYYYGMDVWGQGTTVTVSS
VL: DIQMTQSPLSLSVTPGEPASISCRSSLSLLHSNGYNYLDWYVQRPGQSPQLLMYLSSTRASGVPDRFSGSGSGTDFTLEISRVEAEDVGVYYCMQPLETPPTFGGGTKVEIK
notes: as for B1
B17: M29-E09 (Fab, V domains shown)
VH: EVQLLESGGGLVQPGGSLRLSCAASGFTFSWYEMGWVRQAPGKGLEWVSSIYSSGGGTMYADSVKGRFTISRDNSKNTLYLQMNSLRAEDTAVYYCARNPQYSGYDRSLSDGAFDIWGQGTMVTVSS
VL: QYELTQPPSVSVSPGQTATITCSGDNLGNKYNSWYQQKPGQSPLLVIYQDTKRPSAIPERFSGSNSGNTATLTISGTQAMDEADYYCQAWDGNVVFGGGTKLTVL
notes: as for B1
B18: M7-E07 (Fab, V domains shown)
VH: EVQLLESGGGLVQPGGSLRLSCAASGFTFSWYLMIWVRQAPGKGLEWVSYIYPSGGFTYYADSVKGRFTISRDNSKNTLYLQMNSLRAEDMAVYYCARTEGPLSWGYGMDVWGQGTTVTVSS
VL: not shown
notes: as for B1
B19: M27-E05 (Fab, V domains shown)
VH: B18 VH
VL: not shown
notes: as for B1
B20: M76-D01 (Fab, V domains shown)
VH: EVQLLESGGGLVQPGGSLRLSCAASGFTFSFYAMHWVRQAPGKGLEWVSGIVPSGGRTHYADSVKGRFTISRDNSKNTLYLQMNSLRAEDTAVYYCATDSSGSPNPLFDYWGQGTLVTVSS
VL: DIVMTQTPPSLPVNPGEPASISCRSSQSLSDDGNTYLDWYLQRPGQSPQLLIHTLSYRASGVPDRFSGSGSGTDFTLKISRVEAEDVGVYYCMQGTHWPPTFGQGTKVEIK
notes: Printed HC runs from VH into the start of CH1 (printed end APSPKS)
B21: X81-B01 (antibody, V domains shown)
VH: EVQLLESGGGLVQPGGSLRLSCAASGFTFSHYLMTWVRQAPGKGLEWVSYISPSGGHTIYADSVKGRFTISRDNSKNTLYLQMNSLRAEDTAVYYCARVARGIAARSRTSYFDYWGQGTLVTVSS
VL: EIVLTQSPGTLSLSPGERATLSCRTSQFVNSNYLAWYQQKPGQAPRLLIYGASSRATGIPDRFSGSGSGTDFTLTISRLEPEDFAVYYCQQSSRTPWTFGQGTKVEIK
notes: No variable domains are printed under the name X81-B01; also called germlined, codon optimized IgG version of X63-G06
B22: M38-F02 (Fab, V domains shown)
VH: EVQLLESGGGLVQPGGSLRLSCAASGFTFSYYMMVWVRQAPGKGLEWVSYIYSSGGHTVYADSVKGRFTISRDNSKNTLYLQMNSLRAEDTAVYYCARDLFLYDFWSKGAFDIWGQGTMVTVSS
VL: QSVLTQPPSVSVSPGQTASITCSGEKLGDKYVSWYQQKPGQSPSLVICEDSRRPSGIPERFSGSNSGNTATLTISGAQPMDEADYYCQAWDSSTAIFGPGTKVTVL
notes: as for B1

What follows are binders tested against T1, human plasma kallikrein (human, UniProt P03952 20-390; P03952 391-638) (assay: apparent inhibition constant (Ki,app) against human pKal, enzyme inhibition).
T1 construct: also called pKal; human pKal
T1 sequence (P03952 20-390, chain 1 of 2): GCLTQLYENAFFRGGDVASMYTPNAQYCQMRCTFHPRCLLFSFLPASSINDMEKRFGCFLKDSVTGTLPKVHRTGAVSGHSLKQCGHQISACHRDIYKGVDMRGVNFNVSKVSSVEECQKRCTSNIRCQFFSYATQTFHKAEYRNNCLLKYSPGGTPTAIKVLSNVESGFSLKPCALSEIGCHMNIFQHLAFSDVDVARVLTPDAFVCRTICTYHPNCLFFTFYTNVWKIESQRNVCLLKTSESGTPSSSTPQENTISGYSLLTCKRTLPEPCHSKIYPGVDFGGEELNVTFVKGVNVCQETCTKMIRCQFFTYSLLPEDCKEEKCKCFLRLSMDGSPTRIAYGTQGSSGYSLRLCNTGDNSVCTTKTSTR
T1 sequence (P03952 391-638, chain 2 of 2): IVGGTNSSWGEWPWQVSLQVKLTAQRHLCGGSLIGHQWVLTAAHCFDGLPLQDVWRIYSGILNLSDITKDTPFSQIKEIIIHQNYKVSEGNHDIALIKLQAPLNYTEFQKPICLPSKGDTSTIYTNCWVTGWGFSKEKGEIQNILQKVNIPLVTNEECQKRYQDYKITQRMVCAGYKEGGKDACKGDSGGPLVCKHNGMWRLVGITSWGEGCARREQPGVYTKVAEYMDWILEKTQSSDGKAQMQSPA

Ki	Binder
< 100 nM	B1
0.2 nM	B2
1.3 nM	B3
1.3 nM	B4
3.6 nM	B5
0.35 nM	B6
0.9 nM	B7
105 nM	B8
79 nM	B9
13 nM	B10
0.7 nM	B11
< 100 nM	B12
54 nM	B13
2.9 nM	B14
5.9 nM	B15
< 100 nM	B16
11 nM	B17
36 nM	B18
16 nM	B19
< 100 nM	B20
0.2 nM	B21
14 nM	B22

What follows are binders tested against T1, human plasma kallikrein (assay: ELISA, biotinylated plasma kallikrein coated on microtiter plate, signal divided by streptavidin background).
Description: Abbreviations used: "T/B" is the ELISA signal obtained using of the "target" (biotinylated plasma kallikrein) divided by the ELISA signal of the "background" (streptavidin); both of which were coated on microtiter plates. "nd" is not determined. The symbol "q" refers to the amber suppressible stop codon (TAG), which is translated as glutamine (Q) in strains of *E. coli* such as the TG1 cells that were used to express the Fab fragments.

Human pKal ELISA (T/B)	Binder
39.2 ratio of ELISA signal on target to background (streptavidin)	B1
29.9 ratio of ELISA signal on target to background (streptavidin)	B2
5.4 ratio of ELISA signal on target to background (streptavidin)	B8
4.5 ratio of ELISA signal on target to background (streptavidin)	B9
28 ratio of ELISA signal on target to background (streptavidin)	B10
47.5 ratio of ELISA signal on target to background (streptavidin)	B11
4 ratio of ELISA signal on target to background (streptavidin)	B12
4.1 ratio of ELISA signal on target to background (streptavidin)	B13
11.1 ratio of ELISA signal on target to background (streptavidin)	B14
39.9 ratio of ELISA signal on target to background (streptavidin)	B15
2.4 ratio of ELISA signal on target to background (streptavidin)	B16
28.8 ratio of ELISA signal on target to background (streptavidin)	B17
45.7 ratio of ELISA signal on target to background (streptavidin)	B18
41.3 ratio of ELISA signal on target to background (streptavidin)	B19
11.2 ratio of ELISA signal on target to background (streptavidin)	B20
33.5 ratio of ELISA signal on target to background (streptavidin)	B22
